The target of the experiment is HLA-A*02:01 (Homo sapiens, UniProt P04439, D140Y/D185E/D98H/E176V/E277Q/G131W/G231S/I119V/I121R/I166T/I218V/L300P/L318F/N151K/N90K/P208A/P217A/Q86G/Q94H/R138H/R169H/T345S). The experiment in a line: MHC binding assay (UV-ligand exchange, β2m ELISA, peptide exchange yield). Particulars: MHC class I binding score; binding to HLA-A*02:01 ranged by peptide exchange yield (UV-ligand exchange, β2m ELISA). In short, it runs like this: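 Binding is expressed as peptide exchange yield: stabilized MHC complexes were quantified by β2m ELISA, with a 450 nm TMB read-out on streptavidin-coated plates. Complexes came from UV-ligand exchange, where UV irradiation cleaves a photolabile peptide so the candidate peptide can load.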
For orientation: In an ELISA, binding on a coated surface is turned into a signal by an enzyme label.
“558 (GLLENIPRV; listed as Homo sapiens) [compound 558]”: the Peptide exchange result was ““+++” (≧50 = +++)”.
Turning to “559 (VTVPPGPSL; listed as Homo sapiens) [compound 559]”, the Peptide exchange entry is reported as ““++” (≧20% = ++)”.
In the case of “560 (ALWDIETGQQTTT; listed as Homo sapiens) [compound 560]”, the Peptide exchange result is recorded as ““+++” (≧50 = +++)”.
As to “561 (YLQLTQSEL; listed as Homo sapiens) [compound 561]”, the Peptide exchange result was ““+++” (≧50 = +++)”.
For the substance “562 (YLEELPEKLKL; listed as Homo sapiens) [compound 562]”, the Peptide exchange entry was ““+++” (≧50 = +++)”.
Under “563 (WLLPYNGVTV; listed as Homo sapiens) [compound 563]” stands ““+++” (≧50 = +++)”; under “564 (TVTNAVVTV; listed as Homo sapiens) [compound 564]”, ““+++” (≧50 = +++)”.
Take “565 (ALQETPTSV; listed as Homo sapiens) [compound 565]”: the Peptide exchange entry was ““++” (≧20% = ++)”.
As to “566 (VIADGGIQNV; listed as Homo sapiens) [compound 566]”, the Peptide exchange result is given as ““++” (≧20% = ++)”.
Under “567 (SLLPLDDIVRV; listed as Homo sapiens) [compound 567]” stands ““+++” (≧50 = +++)”; under “568 (TLYDIAHTPGV; listed as Homo sapiens) [compound 568]”, ““++++” (≧75% = ++++)”; under “569 (KLVDRTWTL; listed as Homo sapiens) [compound 569]”, ““+++” (≧50 = +++)”.
As for “570 (ALANQIPTV; listed as Homo sapiens) [compound 570]”, the entry is ““++” (≧20% = ++)”; as for “571 (LLLTTIPQI; listed as Homo sapiens) [compound 571]”, ““+++” (≧50 = +++)”; as for “572 (ALADLIEKELSV; listed as Homo sapiens) [compound 572]”, ““+++” (≧50 = +++)”.
In the case of “573 (ILVANAIVGV; listed as Homo sapiens) [compound 573]”, the Peptide exchange result is ““+++” (≧50 = +++)”.
Regarding “574 (YLLQEPPRTV; listed as Homo sapiens) [compound 574]”, the Peptide exchange entry is reported as ““++” (≧20% = ++)”.
For the substance “575 (YLISQVEGHQV; listed as Homo sapiens) [compound 575]”, the Peptide exchange entry is ““+++” (≧50 = +++)”.
“576 (ILLNNSGQIKL; listed as Homo sapiens) [compound 576]”: the Peptide exchange entry was ““++++” (≧75% = ++++)”.
As for “577 (VMFEDGVLMRL; listed as Homo sapiens) [compound 577]”, the Peptide exchange entry is reported as ““+++” (≧50 = +++)”.
As to “578 (FLDPGGPMMKL; listed as Homo sapiens) [compound 578]”, the Peptide exchange result was ““+++” (≧50 = +++)”.
With “579 (NLMEMVAQL; listed as Homo sapiens) [compound 579]”, the Peptide exchange entry was ““++” (≧20% = ++)”.
For “580 (LLMENAERV; listed as Homo sapiens) [compound 580]”, the Peptide exchange result was ““++” (≧20% = ++)”.
In the case of “582 (TLCDVILMV; listed as Homo sapiens) [compound 582]”, the Peptide exchange entry is ““+++” (≧50 = +++)”.
Regarding “583 (ILANDGVLLAA; listed as Homo sapiens) [compound 583]”, the Peptide exchange entry was ““+++” (≧50 = +++)”.
As to “584 (ALAEVAAMENV; listed as Homo sapiens) [compound 584]”, the Peptide exchange entry is given as ““+++” (≧50 = +++)”.
On to “585 (ALWDLAADKQTL; listed as Homo sapiens) [compound 585]”, for which the Peptide exchange entry is ““++++” (≧75% = ++++)”.
In the case of “586 (KLKPGDLVGV; listed as Homo sapiens) [compound 586]”, the Peptide exchange entry was ““+++” (≧50 = +++)”.
In the case of “587 (VMNDRLYAI; listed as Homo sapiens) [compound 587]”, the Peptide exchange entry is given as ““+++” (≧50 = +++)”.
For the substance “588 (SLLPLSHLV; listed as Homo sapiens) [compound 588]”, the Peptide exchange entry is given as ““+++” (≧50 = +++)”.
Consider “589 (KLYPQLPAEI; listed as Homo sapiens) [compound 589]”, for which the Peptide exchange result is ““+++” (≧50 = +++)”.
As to “590 (SLIEKLWQT; listed as Homo sapiens) [compound 590]”, the Peptide exchange entry is reported as ““++” (≧20% = ++)”.
Turning to “591 (SMAELDIKL; listed as Homo sapiens) [compound 591]”, the Peptide exchange result is on record as ““+++” (≧50 = +++)”.
Turning to “592 (RLLSAAENFL; listed as Homo sapiens) [compound 592]”, the Peptide exchange result is listed as ““+++” (≧50 = +++)”.
For “593 (GLPRFGIEMV; listed as Homo sapiens) [compound 593]”, the Peptide exchange entry is given as ““+++” (≧50 = +++)”.
“594 (IMLKGDNITL; listed as Homo sapiens) [compound 594]”: the Peptide exchange entry is given as ““+++” (≧50 = +++)”.
Consider “595 (VLLSIYPRV; listed as Homo sapiens) [compound 595]”, for which the Peptide exchange result is ““+++” (≧50 = +++)”.
In the case of “596 (ALLDQTKTLAESAL; listed as Homo sapiens) [compound 596]”, the Peptide exchange entry is on record as ““+++” (≧50 = +++)”.
In the case of “597 (KLLEGQVIQL; listed as Homo sapiens) [compound 597]”, the Peptide exchange entry is ““+++” (≧50 = +++)”.
For “598 (FLFPHSVLV; listed as Homo sapiens) [compound 598]”, the Peptide exchange entry was ““+++” (≧50 = +++)”.
For the substance “599 (YLLNDASLISV; listed as Homo sapiens) [compound 599]”, the Peptide exchange result is listed as ““+++” (≧50 = +++)”.
In the case of “600 (ALAAPDIVPAL; listed as Homo sapiens) [compound 600]”, the Peptide exchange result is given as ““+++” (≧50 = +++)”.
“601 (SAFPFPVTV; listed as Homo sapiens) [compound 601]”: the Peptide exchange result was ““+++” (≧50 = +++)”.
Consider “602 (YLLEQIKLIEV; listed as Homo sapiens) [compound 602]”, for which the Peptide exchange result is ““++++” (≧75% = ++++)”.
Take “604 (SILDRDDIFV; listed as Homo sapiens) [compound 604]”: the Peptide exchange entry is reported as ““+++” (≧50 = +++)”.
On to “605 (KLYEAVPQL; listed as Homo sapiens) [compound 605]”, for which the Peptide exchange entry is ““+++” (≧50 = +++)”.
On to “606 (ALWETEVYI; listed as Homo sapiens) [compound 606]”, for which the Peptide exchange result was ““+++” (≧50 = +++)”.
Turning to “607 (RLYSGISGLEL; listed as Homo sapiens) [compound 607]”, the Peptide exchange entry is given as ““+++” (≧50 = +++)”.
As for “608 (SLLSVSHAL; listed as Homo sapiens) [compound 608]”, the entry is ““+++” (≧50 = +++)”.
“609 (ALWKQLLEL; listed as Homo sapiens) [compound 609]”: the Peptide exchange entry is ““+++” (≧50 = +++)”.
Regarding “610 (LLAPTPYIIGV; listed as Homo sapiens) [compound 610]”, the Peptide exchange result was ““+++” (≧50 = +++)”.
As for “611 (YLLDDGTLVV; listed as Homo sapiens) [compound 611]”, the entry is ““++++” (≧75% = ++++)”; as for “612 (YLYNEGLSV; listed as Homo sapiens) [compound 612]”, ““+++” (≧50 = +++)”; as for “613 (RLLPPGAVVAV; listed as Homo sapiens) [compound 613]”, ““+++” (≧50 = +++)”.
Regarding “614 (LLLPDQPPYHL; listed as Homo sapiens) [compound 614]”, the Peptide exchange result is ““+++” (≧50 = +++)”.
In the case of “615 (VLPPDTDPA; listed as Homo sapiens) [compound 615]”, the Peptide exchange entry is given as ““++” (≧20% = ++)”.
As for “616 (VLIDEVESL; listed as Homo sapiens) [compound 616]”, the Peptide exchange entry was ““+++” (≧50 = +++)”.
Under “617 (ALMYESEKVGV; listed as Homo sapiens) [compound 617]” stands ““+++” (≧50 = +++)”; under “618 (VLFDSESIGIYV; listed as Homo sapiens) [compound 618]”, ““+++” (≧50 = +++)”.
As for “619 (ALQDRVPLA; listed as Homo sapiens) [compound 619]”, the entry is ““+++” (≧50 = +++)”; as for “620 (KLLNKIYEA; listed as Homo sapiens) [compound 620]”, ““++++” (≧75% = ++++)”; as for “621 (VLMDRLPSLL; listed as Homo sapiens) [compound 621]”, ““++++” (≧75% = ++++)”.
As for “622 (RLLGEEVVRVLQA; listed as Homo sapiens) [compound 622]”, the entry is ““+++” (≧50 = +++)”; as for “623 (YLVEDIQHI; listed as Homo sapiens) [compound 623]”, ““+++” (≧50 = +++)”; as for “635 (SLDSTLHAV; listed as Homo sapiens) [compound 635]”, ““+++” (≧50 = +++)”.

The values are drawn from patent US20170002055A1, “Novel peptides and combination of peptides for use in immunotherapy against ovarian cancer and other cancers” (immatics biotechnologies GmbH, priority 2015, published 2017).
